Results taken from publication PMC3317646, “Interaction of Chandipura Virus N and P Proteins: Identification of Two Mutually Exclusive Domains of N Involved in Interaction with P” (PLoS ONE, 2012).
Where two headings read alike, the source gives them in different places.

T1: N-terminal six histidine tagged P protein of Chandipura virus (His-P) (Chandipura virus, UniProt P16380 1-293)
T1 construct: Chandipura virus phosphoprotein P, full length (pET20b-P); pET20b usually adds a C-terminal His tag (surmise); also called 6×His-P; pET20b-P; source: bacterially expressed, purified (Ni-NTA agarose); not shown: His6, N-terminal, kept
T1 sequence: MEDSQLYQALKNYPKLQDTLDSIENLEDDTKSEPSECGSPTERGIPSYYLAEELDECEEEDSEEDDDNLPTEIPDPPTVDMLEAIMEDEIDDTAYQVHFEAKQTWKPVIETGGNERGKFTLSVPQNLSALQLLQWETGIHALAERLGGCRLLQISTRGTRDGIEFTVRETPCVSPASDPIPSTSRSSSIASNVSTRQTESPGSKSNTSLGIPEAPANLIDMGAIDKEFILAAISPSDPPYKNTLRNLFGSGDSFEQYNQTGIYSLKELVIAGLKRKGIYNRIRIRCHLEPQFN

B1: Chandipura virus phosphoprotein (P), wild-type, untagged, bacterially expressed (natural protein)
chain: MEDSQLYQALKNYPKLQDTLDSIENLEDDTKSEPSECGSPTERGIPSYYLAEELDECEEEDSEEDDDNLPTEIPDPPTVDMLEAIMEDEIDDTAYQVHFEAKQTWKPVIETGGNERGKFTLSVPQNLSALQLLQWETGIHALAERLGGCRLLQISTRGTRDGIEFTVRETPCVSPASDPIPSTSRSSSIASNVSTRQTESPGSKSNTSLGIPEAPANLIDMGAIDKEFILAAISPSDPPYKNTLRNLFGSGDSFEQYNQTGIYSLKELVIAGLKRKGIYNRIRIRCHLEPQFN
notes: Chandipura virus phosphoprotein P, wild-type (pET3a-P); also called CHPV P; pET3a-P; source: bacterially expressed, purified (Q-Sepharose anion exchange)

Columns and labels:
[1] = molecular target: the molecule itself; experiment: SEC; each purified protein alone on Superdex-200 / S-200 (10/300), 100 mM NaCl TET buffer; oligomerization status from the elution volume
[2] = molecular target: B1; experiment: SEC; N (or N(1–320)) pre-treated with 1% DOC for 30 min, then DOC removed by overnight dialysis against 100 mM NaCl TET buffer with or without equimolar P; S-200 (10/300); ratio by densitometry of bands; conditions: both partners purified
[3] = molecular target: T1, N-terminal six histidine tagged P …; experiment: pull-down; His-tag co-elution after 1% DOC treatment of the N variants and dialysis against the binding buffer in presence of His-P (N variants monomeric); Ni-NTA agarose, eluted with 250 mM imidazole; conditions: both partners purified
[4] = molecular target: the molecule itself; experiment: SEC; each purified protein alone on Superdex-200 / S-200 (10/300), 100 mM NaCl TET buffer; oligomerization status from the elution volume; remark: listed apart in the source
[5] = molecular target: B1; experiment: SEC; equimolar N (or N(1–320)) and P incubated 30 min at 4°C in 100 mM NaCl TET buffer, no DOC treatment (N oligomeric); S-200 (10/300); ratio by densitometry of bands; conditions: both partners purified

Binder	stoichiometry N [1]	stoichiometry N [4]	other results
N(1–320), bacterially expressed (domain or fragment, Chandipura virus nucleocapsid protein N, residues 1-320; also called N(1–320)^0 (monomer after DOC treatment); source: E. coli BL21(DE3) or BL21(DE3)pLysS, purified (anion exchange, MonoQ 5/50 GL)) MSSQVFCISTGQTVSVCLPANEDPVEFPGAFFTPNAKKPTVYIKKETDLSLLRSHVYDGIKDGSVTVSQINSYLYMVLKDIREKPDKNWTSFGVELGKKNEPMGIFDLLNVEDVKGKELDKKGQDTRLPGDDLWLPTLIFGLYRVSRATQVEYKKTLMTNLYAQCKLRTKDAEEIVDETAEFFNAWANDSNFTKIVAAVDMYFHHFKKSDHAPIRFGTIVSRFKDCAALSTLSHLQKVTGLPIEEVFTWVFNKSVQDDLLRMMTPGQEIDQADSYMPYLIDMGLSTKSPYSSTKNPSFHFWGQLTAFLVKSARAKNALVP	8	–	stoichiometry N [2]: 1 N(1–320):P
N(1–220), bacterially expressed (domain or fragment, Chandipura virus nucleocapsid protein N, residues 1-220; source: E. coli BL21(DE3) or BL21(DE3)pLysS, purified (anion exchange, MonoQ 5/50 GL)) MSSQVFCISTGQTVSVCLPANEDPVEFPGAFFTPNAKKPTVYIKKETDLSLLRSHVYDGIKDGSVTVSQINSYLYMVLKDIREKPDKNWTSFGVELGKKNEPMGIFDLLNVEDVKGKELDKKGQDTRLPGDDLWLPTLIFGLYRVSRATQVEYKKTLMTNLYAQCKLRTKDAEEIVDETAEFFNAWANDSNFTKIVAAVDMYFHHFKKSDHAPIRFGTIV	4	–	binding result [3]: binds
Chandipura virus nucleocapsid protein (N), wild-type, untagged, bacterially expressed (natural protein, Chandipura virus nucleocapsid protein N, full-length untagged (pET3a-NC); Oligomeric (nucleocapsid-like rings) as purified; monomeric after 1% DOC; also called CHPV N; wild-type N) MSSQVFCISTGQTVSVCLPANEDPVEFPGAFFTPNAKKPTVYIKKETDLSLLRSHVYDGIKDGSVTVSQINSYLYMVLKDIREKPDKNWTSFGVELGKKNEPMGIFDLLNVEDVKGKELDKKGQDTRLPGDDLWLPTLIFGLYRVSRATQVEYKKTLMTNLYAQCKLRTKDAEEIVDETAEFFNAWANDSNFTKIVAAVDMYFHHFKKSDHAPIRFGTIVSRFKDCAALSTLSHLQKVTGLPIEEVFTWVFNKSVQDDLLRMMTPGQEIDQADSYMPYLIDMGLSTKSPYSSTKNPSFHFWGQLTAFLVKSARAKNALVPVDIAYHELTTAALLFAYAIGRSSELEQRFVLNGKKFTKEKDSREDNDTTPPSERNVVVWLAWWEDIKHEITPDMKAFAKRAVERVGDIRVNSVAEYARKLFA	–	~10	stoichiometry N [5]: 2 N:P (molar ratio)
N(22–422), bacterially expressed (domain or fragment, source: E. coli BL21(DE3) or BL21(DE3)pLysS, purified (anion exchange, MonoQ 5/50 GL)) EDPVEFPGAFFTPNAKKPTVYIKKETDLSLLRSHVYDGIKDGSVTVSQINSYLYMVLKDIREKPDKNWTSFGVELGKKNEPMGIFDLLNVEDVKGKELDKKGQDTRLPGDDLWLPTLIFGLYRVSRATQVEYKKTLMTNLYAQCKLRTKDAEEIVDETAEFFNAWANDSNFTKIVAAVDMYFHHFKKSDHAPIRFGTIVSRFKDCAALSTLSHLQKVTGLPIEEVFTWVFNKSVQDDLLRMMTPGQEIDQADSYMPYLIDMGLSTKSPYSSTKNPSFHFWGQLTAFLVKSARAKNALVPVDIAYHELTTAALLFAYAIGRSSELEQRFVLNGKKFTKEKDSREDNDTTPPSERNVVVWLAWWEDIKHEITPDMKAFAKRAVERVGDIRVNSVAEYARKLFA	8	–	–
B1	–	2	–
N(1–390), bacterially expressed (domain or fragment, Chandipura virus nucleocapsid protein N, residues 1-390; source: E. coli BL21(DE3) or BL21(DE3)pLysS, purified (anion exchange, MonoQ 5/50 GL)) MSSQVFCISTGQTVSVCLPANEDPVEFPGAFFTPNAKKPTVYIKKETDLSLLRSHVYDGIKDGSVTVSQINSYLYMVLKDIREKPDKNWTSFGVELGKKNEPMGIFDLLNVEDVKGKELDKKGQDTRLPGDDLWLPTLIFGLYRVSRATQVEYKKTLMTNLYAQCKLRTKDAEEIVDETAEFFNAWANDSNFTKIVAAVDMYFHHFKKSDHAPIRFGTIVSRFKDCAALSTLSHLQKVTGLPIEEVFTWVFNKSVQDDLLRMMTPGQEIDQADSYMPYLIDMGLSTKSPYSSTKNPSFHFWGQLTAFLVKSARAKNALVPVDIAYHELTTAALLFAYAIGRSSELEQRFVLNGKKFTKEKDSREDNDTTPPSERNVVVWLAWWEDIKHEI	8	–	–
MSSQVFCISTGQTVSVCLPANEDPVEFPGAFFTPNAKKPTVYIKKET (domain or fragment, Chandipura virus nucleocapsid protein N, residues 1-47; source: E. coli BL21(DE3) or BL21(DE3)pLysS, purified (anion exchange, MonoQ 5/50 GL)) [N(1–47), bacterially expressed]	3	–	–
N(1/180–265/422), bacterially expressed (domain or fragment, also called middle deletant; source: E. coli BL21(DE3) or BL21(DE3)pLysS, purified (anion exchange, MonoQ 5/50 GL)) MSSQVFCISTGQTVSVCLPANEDPVEFPGAFFTPNAKKPTVYIKKETDLSLLRSHVYDGIKDGSVTVSQINSYLYMVLKDIREKPDKNWTSFGVELGKKNEPMGIFDLLNVEDVKGKELDKKGQDTRLPGDDLWLPTLIFGLYRVSRATQVEYKKTLMTNLYAQCKLRTKDAEEIVDETAPGQEIDQADSYMPYLIDMGLSTKSPYSSTKNPSFHFWGQLTAFLVKSARAKNALVPVDIAYHELTTAALLFAYAIGRSSELEQRFVLNGKKFTKEKDSREDNDTTPPSERNVVVWLAWWEDIKHEITPDMKAFAKRAVERVGDIRVNSVAEYARKLFA	3	2	–
